Molecular target: gsk3b_human GSK3B (UniProt P49841)
Chain of UniProt P49841 (P49841 whole entry, looked up): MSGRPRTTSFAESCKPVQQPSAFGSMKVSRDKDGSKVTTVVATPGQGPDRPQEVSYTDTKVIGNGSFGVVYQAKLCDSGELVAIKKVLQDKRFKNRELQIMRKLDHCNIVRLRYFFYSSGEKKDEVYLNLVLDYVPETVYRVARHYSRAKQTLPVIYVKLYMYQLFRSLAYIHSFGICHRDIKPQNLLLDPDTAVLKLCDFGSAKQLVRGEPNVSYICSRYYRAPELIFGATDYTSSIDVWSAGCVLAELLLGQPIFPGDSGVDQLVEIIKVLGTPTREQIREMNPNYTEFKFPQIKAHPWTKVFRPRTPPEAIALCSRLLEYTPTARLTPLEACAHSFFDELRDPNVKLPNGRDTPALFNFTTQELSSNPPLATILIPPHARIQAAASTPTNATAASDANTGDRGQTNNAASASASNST

- effect of a mutation on the interaction: increasing interaction
Substance: Leucine-rich repeat serine/threonine-protein kinase 2 (Homo sapiens), Q5S007 G2019S

Reference: IntAct's records for PubMed 24165324
